Experimental findings from patent publication US20140099332A1 (IMMUNOGEN, published 2014) are described below.

The target in one assay is T1, FOLR2 (UniProt P14207 17-230, limits assumed).
T1 construct: also called folate receptor 2
Briefly: ELISA on FOLR2-His antigen, antibody titrated ([Ab] (M)); positive control FR2 Ab reaches about 0.42 [left graph (FOLR2-His].

For assay [1], the target named is T2, human folate receptor 1 (FOLR1) on cells (human, UniProt P15328 25-234).
T2 construct: also called FRA; huFolR1
Briefly: apparent binding affinity 'by both methods': flow cytometry on T47D cells and ELISA; unit M taken from the preceding value; upper end of the range given for FR1-9; flow cytometry on T47D cells and ELISA. The protocol:
(§1) To assure that materials were continuously performing as expected, all antibodies were screened for binding by both ELISA and flow cytometry methods known in the art. Flow cytometry was performed using FOLR1 expressing human T47D cells cultured using in-vitro cell culture techniques known in the art. The antibodies were bound to these cells and detected indirectly using a goat anti-murine Alexa-fluor 488 detection antibody on a FACScalibur machine (FIG. 6A-B).

Another assay has as its target T3, FOLR3 (human, UniProt P41439 23-245, limits assumed).
T3 construct: also called folate receptor 3
Briefly: ELISA with FOLR3-His antigen titrated ([Ag ug/ml]); positive control reaches about 2.6 after 3 min development [right graph (FOLR3-His].

Assay [2] deals with T2, human folate receptor 1 (FOLR1) on cells. Briefly: apparent binding affinity 'by both methods': flow cytometry on T47D cells and ELISA; unit M taken from the preceding value; lower end of the range given for FR1-9; flow cytometry on T47D cells and ELISA. As to the method: as §1
Assay [3] addresses T4, human FolR1-Fc fusion protein (human; mouse, UniProt P15328 25-233).
T4 construct: The construct encodes the 233 amino acids from the N-terminal signal peptide to just upstream of the GPI linkage site; also called huFOLR1-Fc; human folate receptor 1 Fc fusion molecule; not shown: residues encoded by the Pst1 to BamHI oligonucleotide linker
Nature of the assay: sandwich ELISA (FOLR1 ELISA): clone coated on the plate as capture antibody, FOLR-Fc fusion titrated, format as in FIG. 1. As to the method: The 40 clones were alternatively coated onto the assay plate in place of muFR1-9 in the diagram, and the resulting binding curves were analyzed shown in FIG. 5. Antibodies that contained the lowest half-maximal response (EC50) were considered to have the highest binding specificity to FOLR1, and thus were chosen as the top candidates for the assay.

Assay [4] deals with T2, human folate receptor 1 (FOLR1) on cells. Nature of the assay: laser scanning cytometry on cell lines, optimal dilution 1:100. As to the method:
(§2) Three cell lines with varying levels of FOLR1 expression were selected as representative of high expression (KB), low expression (OVCAR3), and no expression (A549). Unlabeled FR1-9 and FR1-13, as well as a commercial anti-FOLR1 antibody (“commercial FRA”), were titrated, and optimal titrations were determined for each of the antibodies using laser scanning cytometry (LSC) detection on the selected cell lines. […] Optimal dilutions were identified for each antibody as follows: 1:5 for commercial FRA, 1:100 for muFR1-9, and 1:200 for muFR1-13.

Assay [5] shares this target. Nature of the assay: apparent binding affinity 'by both methods': flow cytometry on T47D cells and ELISA; lower end of the range given for FR1-13; flow cytometry on T47D cells and ELISA. The protocol: as §1
Assay [6] has the same target. Nature of the assay: indirect flow cytometry, T47D cells, Alexa-488 goat anti-mouse. As to the method:
as §1

The target is the same in assay [7]. Nature of the assay: apparent binding affinity 'by both methods': flow cytometry on T47D cells and ELISA; upper end of the range given for FR1-13; flow cytometry on T47D cells and ELISA. The protocol: as §1
Assay [8] shares this target. Briefly: laser scanning cytometry on cell lines, optimal dilution 1:200. As to the method:
as §2

For assay [9], the target named is T4, human FolR1-Fc fusion protein. Briefly: sandwich ELISA: Mu FOLR1-13 coated on the plate, FOLR-Fc fusion titrated, detected with Hu Mov19 and polyclonal goat anti-human HRP.
For assay [10] the target is unchanged. Briefly: sandwich ELISA (Folate ELISA): 1 ug/ml FR1-64, 1 ug/ml FR1-13-Biotin, FOLR1-Fc titrated.
Assay [11] concerns the target T5, FOLR1 (antigen of the screening ELISAs, form not stated) (human, UniProt P15328 25-234).
T5 construct: It may be the FOLR1-Fc fusion; also called the same antigen; the target
Nature of the assay: competition ELISA: serial concentrations of competing murine clone against a constant concentration of (biotinylated) muFR1-13.

Several values for one entry are separate records, joined by “and”; a condition that tells them apart may be missing. Equal entries are not always repeated. Some results are limits rather than exact numbers.

T4 sequence (P15328 25-233): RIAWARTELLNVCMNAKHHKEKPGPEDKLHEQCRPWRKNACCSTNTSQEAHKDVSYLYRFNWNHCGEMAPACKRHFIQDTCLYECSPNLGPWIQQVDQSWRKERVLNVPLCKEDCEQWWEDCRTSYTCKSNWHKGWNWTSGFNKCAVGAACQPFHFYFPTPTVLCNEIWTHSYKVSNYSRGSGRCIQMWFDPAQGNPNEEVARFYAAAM
T2 sequence (P15328 25-234): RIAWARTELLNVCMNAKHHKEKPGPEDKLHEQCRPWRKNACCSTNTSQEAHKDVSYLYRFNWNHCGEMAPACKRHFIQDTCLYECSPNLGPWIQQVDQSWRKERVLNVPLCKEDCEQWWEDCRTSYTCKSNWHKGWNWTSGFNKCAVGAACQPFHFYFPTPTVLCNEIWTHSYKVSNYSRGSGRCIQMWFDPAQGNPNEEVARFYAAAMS
T3 sequence (P41439 23-245 limits assumed): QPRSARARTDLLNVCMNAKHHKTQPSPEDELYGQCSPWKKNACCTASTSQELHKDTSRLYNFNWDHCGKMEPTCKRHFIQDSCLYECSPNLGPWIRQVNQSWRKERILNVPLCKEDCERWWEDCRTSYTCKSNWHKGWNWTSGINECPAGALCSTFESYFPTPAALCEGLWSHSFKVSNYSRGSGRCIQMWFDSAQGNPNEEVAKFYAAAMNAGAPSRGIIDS
T1 sequence (P14207 17-230 limits assumed): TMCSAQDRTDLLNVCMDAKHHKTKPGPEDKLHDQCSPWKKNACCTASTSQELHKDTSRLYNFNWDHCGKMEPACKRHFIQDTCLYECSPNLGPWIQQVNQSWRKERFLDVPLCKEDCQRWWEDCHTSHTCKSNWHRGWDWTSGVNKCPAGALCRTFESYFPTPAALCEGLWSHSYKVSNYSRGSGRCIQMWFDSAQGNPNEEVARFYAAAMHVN
T5 sequence (P15328 25-234 limits assumed): as the sequence (P15328 25-234) above

B1: muFR1-9 (antibody, mouse IgG1, kappa, V domains shown)
VH: QVQLVESGGGLVQPGGSRKLSCAASGFTFSSFGMHWVRQAPEKGLEWVAYISSGSSTFYYADTVKGRFTISRDNPKNTLFLQMTSLRSEDTAMYYCAKELTGTFAYWGQGTLVTVSA
VL: DIVLTQSPATLSVTPGDSVSLSCRASQSINNNLHWYQQKSHESPRLLIKYASQSISGIPSRFSGSGSGTDFTLSINSVETEDFGMYFCQQSNSWPQVTFGAGTKLELKR
notes: Murine monoclonal purified from hybridoma supernatant; Capture antibody of the sandwich ELISA; also called murine FR1-9
As for B1, the binding result with FOLR2 is “no binding (tested: about 10^-8 M antibody)”; in the assay with FOLR3 it was “no binding (tested: about 2.5 ug/ml antigen)”. The Kd was at most 4 nM in [1] and at least 2 nM in assay [2]. Besides, in [3], the “EC50 (read off the curve)” value was around 0.004 nM. The “signal to background ration” value in [4] was 4.07.

B2: muFR1-62 (antibody, mouse IgG1, kappa, V domains shown)
VH: QVQLQQSGAELARPGASVKMSCKASGYTFTTYTMHWVKQRPGQGLEWIAYINPTSGYNNYNQKFKEKATLTADKSSSTAYMQLTSLTSEDSAVYYCASGGAYGRRPVDYWGQGTSVTVSS
VL: DIVMTQSQKFMSISVGDRVSVTCKASQNVGTNVAWYQQKPGQSPKTLIYSASSRYSGVPDRFTGSGSGTDFTLTISNVQSEDLADYFCHQYNSYPYTFGGGTKLEIKR
notes: Murine monoclonal; The full-length light chain differs from the VL by shifted residues
As to B2, the figures for the binding result with FOLR2 and with FOLR3 were “no binding (tested: about 10^-8 M antibody)” and “no binding (tested: about 2.5 ug/ml antigen)”, respectively. The “EC50 (read off the curve)” value in assay [3] is around 0.01 nM.

B3: muFR1-13 (antibody, mouse IgG2b, kappa, V domains shown)
VH: QVQLKESGPDLVAPSQSLSITCTVSGFSLSRYSVHWIRQPPGKGLEWLGMIWSGGNTDYNSVFKSRLNITKDNSKSQVFLKMNSLQTDDTAIYYCATFDGKVSWFAYWGQGTLVTVSA
VL: SIVMTQTPKFLLVSTGDRFTITCKASQSVSNDVLWYQQKPGQSPKLLIYYAYNRYSGVPDRFTGSGYGTDFTFTITTVQSEDLAVYFCQQDHSSPFTFGSGTKLEIKR
notes: Murine monoclonal purified from hybridoma supernatant; also called muFR1-13b (biotinylated); Biotinylated FR1-13
B3: the Kd in assay [5] was at least 1 nM; in assay [7] it was at most 3 nM. In addition, the binding result with FOLR2 is recorded as “no binding (tested: about 10^-8 M antibody)”; with FOLR3, “no binding (tested: about 2.5 ug/ml antigen)”. Moreover, the “EC50 (read off the curve)” value was ~1 nM and ~2 nM in assay [6]; around 0.005 nM in [9]; ~2 nM and ~3 nM in assay [10]. The “signal to background ration” value in [8] came out at 4.19. Besides, the “IC50 (read off the curve)” value in [11] was around 0.07 µg/mL.

B4: muFR1-53 (antibody, mouse IgG1, kappa, V domains shown)
VH: QVQLQQSGPELVRPGASVKMSCKASGYKFTDYDISWVLQRTGQGLEWIGEIYPGSGRTYYNERFKGKATLTADKSSNTVYMQLSSLTSEDSAVYFCASSYYYGTNSPFAYWGQGTTLTVSS
VL: DIQMTQTTSSLSASLGDRVTISCRASQDISNYLHWYQRKPDGTVKLLVYYTSRLQSGVPSRFSGSGSGTDYSLTISNLEQEDIATYFCQQGNSLPPTFGSGTKLEIKR
notes: The full-length chains differ from the variable domains by shifted residues
B4: the binding result with FOLR2 is reported as “no binding (tested: about 10^-8 M antibody)”; with FOLR3, “no binding (tested: about 2.5 ug/ml antigen)”. Also, the “EC50 (read off the curve)” value in [3] was around 0.01 nM.
